In patent publication US20190381169A1, “PHARMACEUTICAL COMBINATIONS FOR IMMUNOTHERAPY” (Technische Universitat Dresden, priority 2014, published 2019):
Entries after “also recorded” stand apart in the source; their conditions may differ.

How the values were obtained:
p75^NTR [1] = molecular target: T1, p75^NTR (Homo sapiens, UniProt P08138); assay: Antigen mediated proliferation and cytokine secretion of CD4+ T-cells co-cultured with autologous PDC of allergic donors; assay type: cell-based; design: nerve growth factor receptor p75^NTR, which is expressed by human and murine plasmacytoid dendritic cells (PDC); endogenous in cells; host or cells: primary human plasmacytoid dendritic cells (BDCA-4+ selection) from buffy coats or from peripheral blood of allergic donors
T1 sequence (P08138 29-427): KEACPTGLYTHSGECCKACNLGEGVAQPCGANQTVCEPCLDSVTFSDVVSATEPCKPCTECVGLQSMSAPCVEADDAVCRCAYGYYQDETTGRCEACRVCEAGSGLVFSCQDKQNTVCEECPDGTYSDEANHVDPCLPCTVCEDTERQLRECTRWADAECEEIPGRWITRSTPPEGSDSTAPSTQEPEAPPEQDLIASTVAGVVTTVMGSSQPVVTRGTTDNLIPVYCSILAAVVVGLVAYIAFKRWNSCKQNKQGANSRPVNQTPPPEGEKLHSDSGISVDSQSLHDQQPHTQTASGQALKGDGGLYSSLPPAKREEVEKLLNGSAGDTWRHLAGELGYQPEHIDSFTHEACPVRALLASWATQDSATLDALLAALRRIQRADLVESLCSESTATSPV
Description: CD4^+ T helper cells and PDC used in antigen mediated autologous CD4^+ T-cell proliferation assays were purified from peripheral blood (80 ml) obtained from specified donors who are known to have allergy against certain allergens. Peripheral blood was drawn in tubes containing Li-Heparin as anti-coagulant (S-Monovette Li-Heparin 7.5 ml, Sarstedt). CD4^+ T helper cells were purified from peripheral blood mononuclear cells by negative selection using CD4^+ T-cell isolation kit II (Miltenyi Biotec), as per manufacturer's instructions with slight modifications. Briefly, the cell pellet was re-suspended in 50 μl PBS E/B. Then 12 μl of Biotin-labelled antibody cocktail per 10^7 total cells were added and the cell suspension was incubated at 4° C. for 15 minutes. 50 μl of PBS E/B was added followed by addition of 25 μl of anti-biotin microbeads per 10^7 total cells. Cells were incubated at 4° C. for another 20 minutes, followed by washing with 10 ml PBS E/B and centrifugation (470 g for 6 minutes). […] The purity of isolated CD4^+ T helper cells was over 95% as assessed by flow cytometric analysis after co-staining with monoclonal mouse anti human CD3-PE (BD Biosciences) and monoclonal mouse anti human CD4-FITC (BD Biosciences). […]
Purified CD4^+ T helper cells (see above) were washed once with PBS. […] Cell number was determined.
Antigen mediated CD4^+ T helper cell proliferation responses were assayed using purified and CFSE labelled CD4^+ T helper cells in co-culture with purified PDC/BDAC4^+ cells. […] After 5 days of co-culture, supernatant was analyzed for Th1/Th2 cytokines by using BD cytokine bead array (CBA) Human Th1/Th2 cytokine kit (BD Biosciences) and percentages of proliferating CFSE-low CD4^+ T-cells were analyzed by flow cytometry.
The concentrations of IL-2, IL-4, IL-5, IL-10, IFNγ and TNFα in the supernatant were determined by using the CBA kit following manufacturer's instruction with modification in data analysis using Microsoft Excel. […]

p75^NTR [2] = molecular target: T2, p75^NTR (Mus musculus, UniProt Q9Z0W1); assay: Western blotting of TLR signalling proteins in CpG treated murine PDCs; assay type: cell-based
T2 construct: endogenous in cells; host or cells: murine plasmacytoid dendritic cells differentiated in vitro from bone marrow with Flt3-L (p75NTR+/+ wildtype; p75NTR-/- as control)
T2 sequence (Q9Z0W1 32-427): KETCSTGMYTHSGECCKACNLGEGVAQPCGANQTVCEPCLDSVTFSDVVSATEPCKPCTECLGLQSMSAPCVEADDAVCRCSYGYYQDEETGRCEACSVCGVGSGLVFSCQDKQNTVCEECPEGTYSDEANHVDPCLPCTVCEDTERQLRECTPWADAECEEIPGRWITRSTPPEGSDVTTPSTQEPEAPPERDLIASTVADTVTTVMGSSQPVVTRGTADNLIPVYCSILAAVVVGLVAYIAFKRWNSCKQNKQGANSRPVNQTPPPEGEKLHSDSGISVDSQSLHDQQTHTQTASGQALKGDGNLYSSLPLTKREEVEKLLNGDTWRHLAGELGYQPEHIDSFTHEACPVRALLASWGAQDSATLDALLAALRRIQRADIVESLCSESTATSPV
Description: To investigate the mechanisms underlying these effects, we analysed PDCs treated with CPG-ODNs Class A (FIG. 3F) or Class B (FIG. 3G) using western blotting.

[3] = CpG A stimulated p75^NTR+/+ PDCs, NGF added
[4] = p75^NTR+/+ PDCs co-incubated with CpG B and NGF

NGF: Nerve growth factor, best characterized neurotrophin; natural p75^NTR agonist (R&D Systems)
secretion of IL-2 and IL-5 (p75^NTR [1]; CD4+ T-cell/PDC co-culture with allergen, NGF vs without NGF): dose-dependent increased secretion; also recorded: increasing secretion | antigen (allergen) mediated CD4+ T-cells proliferation (CFSE) (p75^NTR [1]; co-culture with autologous PDC plus specific allergen, NGF (25 ng/ml elsewhere in the source) vs without NGF, 5 days): significantly increased; also recorded: increased proliferation | proliferation of T-cells on its own (without PDC co-culture) (p75^NTR [1]; with or without antigen plus minus NGF or with NGF alone): did not show any proliferation | activation (phosphorylation) of IRF-3, IRF7, IKK and c-Jun (p75^NTR [2]; [3]): reduced activation | expression of MyD88 and TRAF6 (p75^NTR [2]; [3]): reduced expression | CpG A-induced phosphorylation of IRF3 and IRF7 (p75^NTR [2]; p75^NTR+/+ PDCs): attenuated | activation (phosphorylation) of IRF3, IRF7, IKK and c-Jun (p75^NTR [2]; [4]): increased | expression of MyD88 and TRAF3 (p75^NTR [2]; [4]): increased expression | levels of CpG-induced phosphorylation of IRF3 and IRF7 in p75^NTR−/− pDCs (p75^NTR [2]; p75^NTR−/− pDCs): did not alter
